Experiments:
[1] = target: T1, epithelial glycoprotein-2 (EGP-2) on EGP-2 overexpressing SW2 cells (human, UniProt P16422 24-314); experiment: RIA of 99mTc-labelled scFv on SW2 cells, 4 C
T1 construct: whole, on cells; Endogenous antigen of the human SW2 cell line; also called GA733-2; Ep-CAM
T1 sequence (looked up): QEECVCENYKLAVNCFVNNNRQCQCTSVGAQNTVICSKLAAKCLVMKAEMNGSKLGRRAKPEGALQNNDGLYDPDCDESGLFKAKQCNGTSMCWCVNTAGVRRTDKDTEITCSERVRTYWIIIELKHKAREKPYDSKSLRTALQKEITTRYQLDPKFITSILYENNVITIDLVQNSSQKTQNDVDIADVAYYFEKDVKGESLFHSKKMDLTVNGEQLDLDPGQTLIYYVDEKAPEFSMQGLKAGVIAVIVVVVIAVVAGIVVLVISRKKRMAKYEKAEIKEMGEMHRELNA

[2] = target: T2, human epithelial glycoprotein-2, recombinant soluble protein (M1-F259) with a six-histidine C-terminal tag (human, UniProt P16422 24-259); experiment: SPR (BIAcore), EGP-2 amine-coupled to CM-5 chip, scFv injected, 20 C
T2 construct: range 1-259; The stated range M1-F259 starts at the initiator methionine; also called recombinant soluble EGP-2-antigen; immobilized EGP-2
T2 sequence: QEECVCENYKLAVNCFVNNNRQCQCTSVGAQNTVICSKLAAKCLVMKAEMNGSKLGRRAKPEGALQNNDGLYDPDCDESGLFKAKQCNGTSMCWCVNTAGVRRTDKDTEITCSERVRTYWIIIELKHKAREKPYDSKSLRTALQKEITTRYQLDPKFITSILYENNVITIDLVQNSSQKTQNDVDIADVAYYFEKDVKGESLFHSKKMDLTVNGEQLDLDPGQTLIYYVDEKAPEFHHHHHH

[3] = target: T2, human epithelial glycoprotein-2, …; experiment: SPR (BIAcore), immobilized EGP-2, low density coating and high flow rate

B1: anti-EGP-2 scFv fragment obtained from the murine hybridoma MOC31 (scFv)
chain: DIVMTQSAFSNPVTLGTSASISCRSTKSLLHSNGITYLYWYLQKPGQSPQLLIYQMSNLASGVPDRFSSSGSGTDFTLRISRVEAEDVGVYYCAQNLEIPRTFGGGTKLEIKRTPSHNSHQVPSAGGPTANSGTSGSQVQLQQSGPELKKPGETVKISCKASGYTFTNYGMNWVKQAPGRGLKWMGWINTYTGESTYADDFKGRFAFSLETSASAAYLQINNLKNEDTATYFCARFAIKGDYWGQGTTLTVSS
Kd [1]: 10.8 nM
Kd [2]: 3 nM
koff [2]: 0.0003 s⁻¹
kon [2]: 99000 M⁻¹ s⁻¹
half-life of binding on its target [3]: ~38 min

B2: anti-EGP-2 scFv fragment 4D5MOC-B (scFv)
chain: DIQMTQSPSSLSASVGDRVTITCRSTKSLLHSNGITYLYWYQQKPGKAPKLLIYQMSNLASGVPSRFSSSGSGTDFTLTISSLQPEDFATYYCAQNLEIPRTFGQGTKVELKRTPSHNSHQVPSAGGPTANSGTSGSEVQLVQSGPGLVQPGGSVRISCAASGYTFTNYGMNWVKQAPGKGLEWMGWINTYTGESTYADSFKGRFTFSLDTSASAAYLQINSLRAEDTAVYYCARFAIKGDYWGQGTLLTVSS
Kd [1]: 3.7 nM
Kd [2]: 3.9 nM
koff [2]: 0.000717 s⁻¹
kon [2]: 184000 M⁻¹ s⁻¹
